Target: human octamer-binding transcription factor 4 (OCT4), endogenous in NCCIT and NTERA-2 cells (UniProt Q01860)
UniProt Q01860, sequence (Q01860 whole entry, looked up): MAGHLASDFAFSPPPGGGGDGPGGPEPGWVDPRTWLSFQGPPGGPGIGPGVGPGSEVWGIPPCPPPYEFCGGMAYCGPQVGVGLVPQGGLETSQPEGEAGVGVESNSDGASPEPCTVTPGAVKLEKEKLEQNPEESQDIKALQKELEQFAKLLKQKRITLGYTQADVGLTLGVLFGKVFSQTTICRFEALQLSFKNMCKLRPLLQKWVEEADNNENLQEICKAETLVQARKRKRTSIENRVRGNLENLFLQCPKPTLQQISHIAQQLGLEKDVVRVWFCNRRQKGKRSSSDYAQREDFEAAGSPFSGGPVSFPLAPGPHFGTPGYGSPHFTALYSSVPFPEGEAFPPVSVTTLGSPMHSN

protein phosphatase 1 (PP1), endogenous in NCCIT and NTERA-2 cells
phosphorylated OCT4 after doxycycline-dependent shRNA suppression of PP1 (western blotting and immunofluorescence staining): when the expression of PP1 was suppressed using doxycycline, the phosphorylated OCT4 was increased | phosphorylation of OCT4 after okadaic acid treatment (western blotting and immunofluorescence staining): when PP1 was inhibited, the phosphorylation of OCT4 was increased
